What was measured:
[1] = biological target: T1, His-MB (AnkG MB domain, aa 2–791, His-tagged) (UniProt O70511 2-791); assay: SPR
T1 sequence (looked up): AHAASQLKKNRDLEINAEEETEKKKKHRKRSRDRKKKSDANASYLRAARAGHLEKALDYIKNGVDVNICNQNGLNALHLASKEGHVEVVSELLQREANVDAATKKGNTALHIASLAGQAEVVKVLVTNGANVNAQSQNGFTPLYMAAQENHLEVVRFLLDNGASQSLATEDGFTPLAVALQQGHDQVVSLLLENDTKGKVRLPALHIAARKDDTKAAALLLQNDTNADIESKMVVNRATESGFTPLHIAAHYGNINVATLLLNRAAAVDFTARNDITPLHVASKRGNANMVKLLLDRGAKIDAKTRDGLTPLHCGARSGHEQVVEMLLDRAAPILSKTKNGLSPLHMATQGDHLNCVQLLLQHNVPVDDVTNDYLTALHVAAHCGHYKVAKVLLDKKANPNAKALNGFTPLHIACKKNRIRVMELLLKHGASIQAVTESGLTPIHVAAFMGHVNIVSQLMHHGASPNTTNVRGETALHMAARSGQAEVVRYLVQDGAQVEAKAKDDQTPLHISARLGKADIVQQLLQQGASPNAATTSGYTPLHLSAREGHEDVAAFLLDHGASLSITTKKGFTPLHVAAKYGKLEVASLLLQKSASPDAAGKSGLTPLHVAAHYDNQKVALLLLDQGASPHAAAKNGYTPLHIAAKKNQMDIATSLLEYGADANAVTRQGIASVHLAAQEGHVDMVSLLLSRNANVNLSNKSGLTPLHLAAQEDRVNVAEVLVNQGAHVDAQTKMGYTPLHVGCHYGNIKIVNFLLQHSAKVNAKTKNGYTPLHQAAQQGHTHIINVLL

[2] = biological target: T2, His-AR1 (AnkG aa 2–236, His-tagged) (UniProt O70511 2-236); assay: SPR
T2 sequence (looked up): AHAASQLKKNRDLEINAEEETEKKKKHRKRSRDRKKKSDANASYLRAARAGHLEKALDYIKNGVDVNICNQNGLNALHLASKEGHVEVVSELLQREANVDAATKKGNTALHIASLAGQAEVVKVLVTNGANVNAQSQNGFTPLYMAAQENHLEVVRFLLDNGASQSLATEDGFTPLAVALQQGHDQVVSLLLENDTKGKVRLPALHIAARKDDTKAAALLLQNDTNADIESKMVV

B1: GST-Tail (GST-tagged KIF5B tail, aa 758–963) (domain or fragment)
chain: not shown
Work on B1 yielded a Kd [1] of 2.4 nM, a koff [1] of 0.00059 s⁻¹ and a kon [1] of 290000 M⁻¹ s⁻¹. For the same binder, the Kd [2] was 48 nM, the koff [2] was 0.0014 s⁻¹ and the kon [2] was 32000 M⁻¹ s⁻¹.
